Data taken from the supplement of paper PMC9170038.

Test system: MS2 coat protein
Experiment: apparent KD of MS2 coat protein; designed switch direction (-1 OFF switch, 1 ON switch): -1; higher = weaker reporter binding
Method in brief: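 The reported apparent KD is a per-design median over clusters, from curve fits of normalised cluster fluorescence. Protein titrations used SNAP-549-labelled MS2 coat protein, doubled from 0.7 or 1.5 nM to 3 µM, in Tris-HCl pH 7.5 buffer with KCl, MgCl2, BSA, DTT, tRNA and Tween-20, with no input, 200 uM small-molecule ligand, or an oligonucleotide input. The RNA switches were transcribed on Illumina chips by stalled E. coli RNA polymerase.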

[1] = input ligand: microRNA oligo, concentration not stated
[2] = Eterna round: R95, input ligand: FMN 200 uM
[3] = Eterna round: R95, input ligand: microRNA oligo, concentration not stated
[4] = Eterna round: R95, input ligand: none

Sequence | apparent KD of MS2 coat protein (input ligand: FMN 200 uM) [nM] | apparent KD of MS2 coat protein [1] [nM] | apparent KD of MS2 coat protein (input ligand: none) [nM] | apparent KD of MS2 coat protein [2] [nM] | apparent KD of MS2 coat protein [3] [nM] | apparent KD of MS2 coat protein [4] [nM]
CUAGCGAUUGUAGGAUAUCGGACUGUUUCAGUCUGAGAAGGACAUGAGGAUCACCCAUGUGAAGCUACGUGAGUAGCACGCUAG [JL ENG1 3.84] (Eterna round: R96, puzzle: Exclusion NG 1) | 46.1 | 15.4 | 24.5 | – | – | –
CUAGGUCGAGGAUAUACAUGAGGAUCACCCAUGUCGGUUCCAUGAGAGCUAGACACUAGUAGAAGGCGGUAGGC [Eternabot (L2) Solution 60] (Eterna round: R97, puzzle: Exclusion 3) | 26.1 | – | 27.8 | – | – | –
CUAGUCCGAGGAUAUAUAUUGUGAUACAUGAGGAUCACCCAUGUAAUAAUAUGGAAAUAAAUAGAAGGCGGACUAG [Mat - Exclusion 5 - JL mod - D53] (puzzle: Exclusion 5) | – | – | – | 56.4 | 36.8 | 27
CUAGUCCGAGGAUAUAUUAAGUGAUACAUGAGGAUCACCCAUGUUAUUUAAUGGAUGUUAAUAGAAGGCGGACUAG [Mat - Exclusion 5 - JL mod - D76] (puzzle: Exclusion 5) | – | – | – | 55 | 37.7 | 77.8
CUAUCUUGCAAGGAUAUGCAAUUUAUUAUUUAUGCAGAAGGUGCUACAUGAGGAUCACCCAUGUUUCUGGGUUU [JR_E6_Sub046] (Eterna round: R96, puzzle: Exclusion 6) | 314 | 116 | 120 | – | – | –
CUAUCUUGCAAGGAUAUGCAAUUUAUUAUUUAUGCAGAAGGUGCUACAUGAGGAUCACCCAUGUUUCUGGGUUU [JR_E6_Sub046] (puzzle: Exclusion 6) | – | – | – | – | 117 | –
CUAUUGUGAGGAUAUCAGGUGUGCUAGCGUACUGGUACAUCUGAGAAGGCACAUGAGGAUCACCCAUGUUUCUU [JL-ex4-3.20 Brourd mod] (puzzle: Exclusion 4) | – | – | – | – | 18.4 | –
CUCAGGUGAGGAUAUGCUUAAGGAUCGGUACACCGACACCUGUAGAAGGCACAUGAGGAUCACCCAUGUUAGGC [Eternabot (L1) Solution 68] (Eterna round: R97, puzzle: Exclusion 4) | 30.1 | – | 27.9 | – | – | –
CUCAUUUGUCAGGAUAUCGUGUGGCUAAUUGUACGAGAAGGGACGACAUGAGGAUCACCCAUGUGGUCUUUGAG [JR_Ex6_Sub083] (Eterna round: R97, puzzle: Exclusion 6) | 196 | – | 54.8 | – | – | –
CUCCAUGCCCAGGCUUAGAACAUGAGGAUCACCCAUGUAGAUCCAGAAAAUUUGCUCGUCAGGCAAUUUAUAGAUUG [Eternabot (L1) Solution 9] (Eterna round: R97, puzzle: Sensor, turn-off variant 1) | 500 | – | 687 | – | – | –
CUCCCACAUGAGGAUCACCCAUGUGAGGAUAUGGAGCGCGACCGCGCGGUCGCGUACACCAGAAGGCGCAUGAU [1st #81] (Eterna round: R97, puzzle: Exclusion 1) | 24.1 | – | 21.1 | – | – | –
CUCCGCCGCAGAGGAUAUGGAUGUCGGAGACAUGAGGAUCACCCAUGUAUCCUGUCGAUGAGUACCCAGAAGGUUGUCACGCAU [Eternabot solution 49] (Eterna round: R96, puzzle: Exclusion NG 2) | 26.4 | 26 | 26.1 | – | – | –
CUCCGGCGUGUAGGAUAUGGUUCCGUUUAGGAUCCAGAAGGACAUGAGGAUCACCCAUGUACAUGUCGUCGGUCGUCACCGGGC [salish99_ExNG1_r04_212] (Eterna round: R96, puzzle: Exclusion NG 1) | 110 | 24.5 | 28.5 | – | – | –
CUCCGGCGUGUAGGAUAUGGUUCCGUUUCGGUUCCAGAAGGACAUGAGGAUCACCCAUGUACAUGUCGUCGGUCGUCACCGGGC [salish99_ExNG1_r04_215] (Eterna round: R96, puzzle: Exclusion NG 1) | 120 | 21.7 | 35.4 | – | – | –
CUCCUCAUGGCGCCUAAACACAUGAGGAUCACCCAUGUACAGGCUCUUUGCCGUCUUAUAAUAAAACCGAGGAUGCG [Ageusan] (puzzle: Sensor v3, turn-off variant 1) | – | – | – | 40.2 | 219 | 36.4
CUCGUGCAGCAAAGCUGUACGAGUACAUGAGGAUCACCCAUGUAGGAUAUGGUACGCAAAGCGUGCUAGAAGGAUAUGUGAAGG [Mat - Exclusion NG 3 - Mod of JL - D88] (Eterna round: R96, puzzle: Exclusion NG 3) | 49.4 | 36.2 | 51.5 | – | – | –
CUCUACGGAGGAUAUACAACCGGUUAUCCCUGUGGAACGCCACAUGAGGAUCACCCAUGUAGAAGGCCGAGAAA [Ceones] (puzzle: Exclusion 2) | – | – | – | 15.2 | 211 | 218

Sequence | apparent KD of MS2 coat protein (input ligand: FMN 200 uM) [nM] | apparent KD of MS2 coat protein [1] [nM] | apparent KD of MS2 coat protein (input ligand: none) [nM] | apparent KD of MS2 coat protein [2] [nM] | apparent KD of MS2 coat protein [3] [nM] | apparent KD of MS2 coat protein [4] [nM]
CUCUUGUAAGGAUAUCUGACAAGUGACGAAAGUCACAGUUCAGAGAAGGUACAUGAGGAUCACCCAUGUAGAAC [Exclusion 4 - Mod Brourd Ex 4-3: 41] (puzzle: Exclusion 4) | – | – | – | – | 60.6 | –
CUGAACCCGGUAGGAUAUAUUGUGGGCAGGCGUGGAACGACAUGAGGAUCACCCAUGUAAUUGAGGUAGAAGGGCCGAGAGAUU [Excl-NG2-LRO14] (Eterna round: R96, puzzle: Exclusion NG 2) | 32.8 | 25.9 | 37.1 | – | – | –
CUGAAUCGAGGAUAUUGUACUGCUGACAUGAGGAUCACCCAUGUAUGUUAACUCAGCCGUCGAGAAGGCGAACAUA [BotMod 33 - Jieux - Exclusion 5] (Eterna round: R97, puzzle: Exclusion 5) | 12.8 | – | 19 | – | – | –
CUGAGCAGACGGAGAUCCAACAUGAGGAUCACCCAUGUCUCAAAAGCUUUUUGCUCGUCUUAUCCUCCUCUGCUCUC [Orgeain] (puzzle: Sensor v3, turn-off variant 1) | – | – | – | 14.8 | 31.6 | 14.1
CUGAGGUAGCGGUCCUAUGACAUGAGGAUCACCCAUGUACCUUGCUACGAGCUUUUUGCUCGUCUUAUAAUUCUCAG [Mat - Sensor v3 - turn-off var 1 - JL Mod - D31] (puzzle: Sensor v3, turn-off variant 1) | – | – | – | 151 | 96.5 | 247
CUGAGUUUAGGAUAUACAUGAGGAUCACCCAUGUAAAGUAGCUUGCGUACAGGCAGAUGUAGAAGGAAAUUCGG [Mod of JL 7 - Jieux - Exclusion 3] (Eterna round: R97, puzzle: Exclusion 3) | 31.5 | – | 41.8 | – | – | –
CUGAUGUGAGGAUAUCUAAAAGAAACUGGGCAAAUACCCAGAGAGAAGGCACAUGAGGAUCACCCAUGUAACGA [Anedin] (puzzle: Exclusion 4) | – | – | – | – | 20.9 | –
CUGCUGGAGCGGCGCUUUGGUCGUACAUGAGGAUCACCCAUGUAGGAUAUGGUAAAAUUUGCCUGCUAGAAGGAUAGAGUGGUC [salish99_ExNG3_r04_616] (Eterna round: R96, puzzle: Exclusion NG 3) | 124 | 70 | 91.6 | – | – | –
CUGCUGGAGCGGCGCUUUGGUCGUACAUGAGGAUCACCCAUGUAGGAUAUGGUAAAAUUUGCUUGCUAGAAGGAUAGAGUGGUC [salish99_ExNG3_r04_615] (Eterna round: R96, puzzle: Exclusion NG 3) | 140 | 64.5 | 80.3 | – | – | –
CUGGUCCGAGGAUAUAUUAAGUGAAACAUGAGGAUCACCCAUGUUAUUUGAUGGAUGUAAAUAGAAGGCGGACUAG [JL-ex5-3.13] (puzzle: Exclusion 5) | – | – | – | 23.8 | 33.1 | 49.1
CUGGUCCGAGGAUAUAUUAAGUGAUACAUGAGGAUCACCCAUGUUAUUUAAUGGAUAUUAAUAGAAGGCGGACUAG [Mat - Exclusion 5 - JL mod - D77] (puzzle: Exclusion 5) | – | – | – | 34.1 | 28.4 | 25.5
CUGGUCCGAGGAUAUAUUAUGUGAAACAUGAGGAUCACCCAUGUAAUAUGAUGGAAAUAAAUAGAAGGCGGACUAG [Mat - Exclusion 5 - JL mod - D32] (puzzle: Exclusion 5) | – | – | – | 26 | 34.5 | 43.5
CUGUAAAGGAAGGAUAUGCUAGACGAAAGUCUAGCAGAAGGUCCUACAUGAGGAUCACCCAUGUGGCCUCACAG [Mat - Exclusion 6 - Eli Mod - D50] (Eterna round: R97, puzzle: Exclusion 6) | 1500 | – | 274 | – | – | –
CUGUACUGAGGAUAUACAUGAGGAUCACCCAUGUGUCCCAGCUAGGAAACUAGCAAAGGUAGAAGGCAGUACAG [Mat - Exclusion 3 - Eli Mod - D57] (Eterna round: R97, puzzle: Exclusion 3) | 302 | – | 22.6 | – | – | –
CUGUACUGAGGAUAUACAUGAGGAUCACCCAUGUGUUCCAGCUAGGAAACUAGCAAAAGUAGAAGGCAGUACAG [Mat - Exclusion 3 - Eli Mod - D65] (Eterna round: R97, puzzle: Exclusion 3) | 332 | – | 30.5 | – | – | –
CUUAAAAGGAAGGAUAUGCUAGACGAAAGUCUAGCAGAAGGUCCUACAUGAGGAUCACCCAUGUGUCCUAUAAG [Mat - Exclusion 6 - Eli Mod - D13] (Eterna round: R97, puzzle: Exclusion 6) | 72.4 | – | 81.1 | – | – | –
